Reference: patent publication US20070218001A1 (BIOTECH STUDIO, published 2007)
Values joined by “and” are separate entries in the source; they are usually repeats but may differ in a detail not shown here. Equal entries are not always repeated. Where no end group is shown, it is not given here. The star is where a group is joined. Biotin = O=C1N[C@H]2[C@H](CS[C@H]2CCCCC(=O)*)N1

T1: recombinant phage displaying CASK PDZ domain (PDZ domain of human hCASK, hCASK-PDZopt in pCANTAB5E) (human, UniProt O14936 480-577)
T1 construct: also called wildtype hCASK-PDZ
T1 sequence: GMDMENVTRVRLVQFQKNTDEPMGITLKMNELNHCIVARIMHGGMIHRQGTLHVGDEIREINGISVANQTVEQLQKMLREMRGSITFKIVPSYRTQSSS

B1: biotin-QKAPTKEFYA peptide (peptide)
peptide: Biotin-QKAPTKEFYA
notes: also called cognate peptide ligand of hCASK PDZ; C-terminus of syndecan-2

Assays:
biotin-… peptide = test: phage ELISA, biotinylated peptide on streptavidin-coated wells, anti-M13 HRP and ABTS, 35 min at room temperature
[1] = target: T1, recombinant phage displaying CASK PDZ …; test: phage ELISA

Row | Molecule | OD405 (biotin-… peptide) | binding result [1]
1 | phage-displayed third PDZ domain of human Dlg1 (in pCANTAB5E) | 0.51 OD405 and 0.46 OD405 | –
2 | B1 | – | binds
